This assay addresses Aha1 I64X (pAzpa at position 64) with C-terminal V5/His6-tag (S. cerevisiae) (UniProt Q12449). Kind of assay: cross-linking; in vivo photo-cross-linking (pAzpa, UV 365 nm), crosslink product immunoprecipitated by anti-V5, separated by 6% SDS-PAGE, band digested and identified by MALDI-TOF/MS.

As for “Aha1 I64X (pAzpa at position 64) with C-terminal V5/His6-tag (from UniProt Q12449 1-350)”, the stoichiometry N worked out at 2.

The values are drawn from publication PMC3948627.
